We go through 1 molecule from EP0842948B1 (MOCHIDA PHARMACEUTICAL CO., LTD., dated 2009).

Experiment [1] concerns the target extracellular domain of the Fas ligand derived from COS-1 cell (human). Put plainly: cell-based or functional assay.
In experiment [2] the target is T1, human Fas ligand expressed on 1A12 cells (human, UniProt P48023 1-281).
T1 construct: whole, on cells; also called Fas ligand antigen on 1A12 transfectant cells
T1 sequence (looked up): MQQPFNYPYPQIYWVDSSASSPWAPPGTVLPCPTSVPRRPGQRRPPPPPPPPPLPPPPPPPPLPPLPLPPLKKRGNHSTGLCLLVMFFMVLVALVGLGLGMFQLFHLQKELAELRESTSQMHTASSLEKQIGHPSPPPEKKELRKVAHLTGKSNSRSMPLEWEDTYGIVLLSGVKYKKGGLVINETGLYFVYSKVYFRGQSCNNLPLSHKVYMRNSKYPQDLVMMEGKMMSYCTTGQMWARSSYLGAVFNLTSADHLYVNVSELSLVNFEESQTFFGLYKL
Put plainly: competitive binding against 125I-labelled mouse F919 on 1A12 cells.

Where “and” joins values, the source holds several entries; their conditions need not be identical. Equal values may be shown once.

B1: mouse monoclonal antibody F919-9-18 (antibody, V domains shown)
VH: QIQLVQSGPELKKPGETVKISCKASGYTFTEYPMHWVKQAPGKGFKWMGMIYTDTGEPSYAEEFKGRFAFSLETSASTAYLQINFLKNEDTATYFCVRFYWDYFDYWGQGTTLTVSS
VL: DIQMTQTTSSLSASLGDRVTISCRASQDISNYLNWYQQKPDGTVKLLIYYTSRLHSGVPSRFSGSGSGTNYSLTISNLEQGDIATYFCQQGSTLPWTFGGGTKLEIK
Consider B1, for which, in experiment [1], the apoptosis-suppression activity (fold against F883-1-1) was 100. The Ka in experiment [2] was 3e+08 M⁻¹ and 4e+08 M⁻¹.
